The chains are these.
B1: PTH1R-WT coupled to a C-terminal HaloTag (parathyroid hormone 1 receptor) [not stated] / β-arrestin1 WT C-terminally fused to Nanoluciferase [not stated] (parent)
chain 1: MGDKGTRVFKKASPNGKLTVYLGKRDFVDHIDLVDPVDGVVLVDPEYLKERRVYVTLTCAFRYGREDLDVLGLTFRKDLFVANVQSFPPAPEDKKPLTRLQERLIKKLGEHAYPFTFEIPPNLPCSVTLQPGPEDTGKACGVDYEVKAFCAENLEEKIHKRNSVRLVIRKVQYAPERPGPQPTAETTRQFLMSDKPLHLEASLDKEIYYHGEPISVNVHVTNNTNKTVKKIKISVRQYADICLFNTAQYKCPVAMEEADDTVAPSSTFCKVYTLTPFLANNREKRGLALDGKLKHEDTNLASSTLLREGANREILGIIVSYKVKVKLVVSRGGLLGDLASSDVAVELPFTLMHPKPKEEPPHREVPENETPVDTNLIELDTNDDDIVFEDFARQRLKGMKDDKEEEEDGTGSPQLNNR
chain 2: DADDVMTKEEQIFLLHRAQAQCEKRLKEVLQRPASIMESDKGWTSASTSGKPRKDKASGKLYPESEEDKEAPTGSRYRGRPCLPEWDHILCWPLGAPGEVVAVPCPDYIYDFNHKGHAYRRCDRNGSWELVPGHNRTWANYSECVKFLTNETREREVFDRLGMIYTVGYSVSLASLTVAVLILAYFRRLHCTRNYIHMHLFLSFMLRAVSIFVKDAVLYSGATLDEAERLTEEELRAIAQAPPPPATAAAGYAGCRVAVTFFLYFLATNYYWILVEGLYLHSLIFMAFFSEKKYLWGFTVFGWGLPAVFVAVWVSVRATLANTGCWDLSSGNKKWIIQVPILASIVLNFILFINIVRVLATKLRETNAGRCDTRQQYRKLLKSTLVLMPLFGVHYIVFMATPYTEVSGTLWQVQMHYEMLFNSFQGFFVAIIYCFCNGEVQAEIKKSWSRWTLALDFKRKARSGSSSYSYGPMVSHTSVTNVGPRVGLGLPLSPRLLPTATTNGHPQLPGHAKPGTPALETLETTPPAMAAPKDDGFLNGSCSGLDEEASGPERPPALLQEEWETVM

Variants of B1 are the subject of this experiment. Kind of experiment: NanoBRET recruitment assay in living cells. The following applies: with β-arrestin1 WT C-terminally fused to Nanoluciferase, point at the highest PTH(1-34) concentration (about 3 µM), read off a plot.

For chain 2 DADDVMTKEEQIFLLHRAQAQCEKRLKEVLQRPASIMESDKGWTSASTSGKPRKDKASGKLYPESEEDKEAPTGSRYRGRPCLPEWDHILCWPLGAPGEVVAVPCPDYIYDFNHKGHAYRRCDRNGSWELVPGHNRTWANYSECVKFLTNETREREVFDRLGMIYTVGYSVSLASLTVAVLILAYFRRLHCTRNYIHMHLFLSFMLRAVSIFVKDAVLYSGATLDEAERLTEEELRAIAQAPPPPATAAAGYAGCRVAVTFFLYFLATNYYWILVEGLYLHSLIFMAFFSEKKYLWGFTVFGWGLPAVFVAVWVSVRATLANTGCWDLSSGNKKWIIQVPILASIVLNFILFINIVRVLATKLRETNAGRCDTRQQYRKLLKSTLVLMPLFGVHYIVFMATPYTEVSGTLWQVQMHYEMLFNSFQGFFVAIIYCFCNGEVQAEIKKSWSRWTLALDFKRKARAGAAAYAYGPMVSHTSVTNVGPRVGLGLPLSPRLLPTATTNGHPQLPGHAKPGTPALETLETTPPAMAAPKDDGFLNGSCSGLDEEASGPERPPALLQEEWETVM [chain 2 S463A S465A S466A S467A S469A], the response (HEK-WT + EV, parent: 5.9) was found to be 5.8 fold change; the response (HEK-WT cells, parent: 5.9) is 5.9 fold change; the response (ΔQ-GRK + EV, parent: 1.4) came to 1.7 fold change; the response (ΔQ-GRK + GRK2, parent: 5.3) was found to be 6.3 fold change.
For chain 2 DADDVMTKEEQIFLLHRAQAQCEKRLKEVLQRPASIMESDKGWTSASTSGKPRKDKASGKLYPESEEDKEAPTGSRYRGRPCLPEWDHILCWPLGAPGEVVAVPCPDYIYDFNHKGHAYRRCDRNGSWELVPGHNRTWANYSECVKFLTNETREREVFDRLGMIYTVGYSVSLASLTVAVLILAYFRRLHCTRNYIHMHLFLSFMLRAVSIFVKDAVLYSGATLDEAERLTEEELRAIAQAPPPPATAAAGYAGCRVAVTFFLYFLATNYYWILVEGLYLHSLIFMAFFSEKKYLWGFTVFGWGLPAVFVAVWVSVRATLANTGCWDLSSGNKKWIIQVPILASIVLNFILFINIVRVLATKLRETNAGRCDTRQQYRKLLKSTLVLMPLFGVHYIVFMATPYTEVSGTLWQVQMHYEMLFNSFQGFFVAIIYCFCNGEVQAEIKKSWSRWTLALDFKRKARSGSSSYSYGPMVAHAAVANVGPRVGLGLPLSPRLLPTATTNGHPQLPGHAKPGTPALETLETTPPAMAAPKDDGFLNGSCSGLDEEASGPERPPALLQEEWETVM [chain 2 S475A T477A S478A T480A], the response was 2.9 fold change (HEK-WT + EV, parent: 5.9); 2.9 fold change (HEK-WT cells, parent: 5.9); 2 fold change (ΔQ-GRK + EV, parent: 1.4); 2.7 fold change (ΔQ-GRK + GRK2, parent: 5.3).
